# Experiments:
# rats = experiment: Intrathecal VIP in rats; format: in vivo, rat
# Description: Each animal was treated with VIP or Ringer's solution in a counterbalanced fashion. […] At a dose of 25 ug VIP/5 ul (5 ug/ul), there were 4 of 6 documented deaths. At 60 ug VIP/5 ul (12 ug/ul), there were 3 of 5 documented deaths.
# [1] = test system: gp120 binding to brain tissue; details: in vitro; cited from earlier work
# HIV = details: in vitro; cited from earlier work
# [2] = test system: neurotoxic effects of gp120; details: on cells and in animals; cited from earlier work
# [3] = test system: intracellular free calcium; details: cited from earlier work
Compound,Documented deaths (rats; 25 ug VIP/5 ul (5 ug/ul) IT),Documented deaths (rats; 60 ug VIP/5 ul (12 ug/ul) IT),Morbidity (rats; IT VIP),"Symptoms shown by all VIP-treated animals (rats; IT VIP, all doses)","Concentration shown to be effective to induce the desired symptoms (rats; IT, rats)",AIDS-like symptoms in addition to neurological deficit (rats; VIP 25 ug/5 ul (5 ug/ul) IT),Effect on binding of gp120 [1],Effect on HIV replication in cell culture (HIV),Effect on the neurotoxic effects of gp120 [2],Effect on gp 120-CD4 induced increase of intracellular free calcium [3]
Vasoactive Intestinal Peptide [VIP],4 of 6,3 of 5,morbidity was observed,"diarrhea, weight loss, monoparesis, lower limb deficits and mucous secretions",2.55 to 12 µg/µL,"diarrhea, hind limb rigidity and damage to spinal tissue",inhibit,inhibit,potently inhibit,
COCCOC(=O)C1=C(C)NC(C)=C(C(=O)OC(C)C)C1c1cccc([N+](=O)[O-])c1 (stereo not shown) [nimodipine],,,,,,,,,,antagonize this effect

# Source: US5641746A, “Animal model for AIDS” (Rutgers State University of New Jersey, priority 1994, dated 1997)
